Consider 16 molecules from patent US11155602B2, “Polypeptides targeting HIV fusion” (priority 2015, dated 2021).

Substitutions are numbered along the chain they refer to.

B1: 421 (protein)
chain: MGHHHHHHGVSDVPRDLEVVAATPTSLLISWVAGAEDYQYYRITYGETGGNSPVQEFTVPHDLVTATISGLKPGVDYTITVYAVTDMMHVEYTEHPISINYRTEIDGGGGSGGGGSGGGGSGGAIAEYAARIEALIRAAQEQQEKNEAALRELDKWAS
modifications: Anti-N17 Adnectin - HIV fusion peptide inhibitor Combinectin
B2: 425 (protein)
chain: MGHHHHHHGGSVSDVPRDLEVVAATPTSLLISWEYKVNAYRYYRITYGETGGNSPVQEFTVPSVLSTATISGLKPGVDYTITVYAVTYGVDSDPISINYRTEIDGGGGSGGGGSGGGGSGGGGTIAEYAARIEALIRAAQEQQEKNEAALRELYKWAS
modifications: Anti-N17 Adnectin - HIV fusion peptide inhibitor Combinectin
B3: 414 (protein)
chain: MGHHHHHHTSGVSDVPRDLEVVAATPTSLLISWDAPAVTVGWYHIGYNVEGEPASYQYFRVPGSKSTATISGLKPGVEYMIFVNAVTGSGAREEFSLPISINYRTEIDGGGGSGGGGSGGGGSGGGGSEYEARIEALIRAAQEQQEKNEAALRELDKWTGVWGNYEKV
modifications: Anti-N17 Adnectin - HIV fusion peptide inhibitor Combinectin
B4: 420 (protein)
chain: MGHHHHHHGGSVSDVPRDLEVVAATPTSLLISWEYKVHPYRYYRITYGETGGNSPVQEFTVPSVLSTATISGLKPGVDYTITVYAVTYGDDSAPISINYRTEIDGGGGSGGGGSGGGGSGGGGSRIEALIRAAQEQQEKNEAALRELDKWAS
modifications: Anti-N17 Adnectin - HIV fusion peptide inhibitor Combinectin
B5: 412 (protein)
chain: MGHHHHHHGGSVSDVPRDLEVVAATPTSLLISWEYKVNAYRYYRITYGETGGNSPVQEFTVPSVLSTATISGLKPGVDYTITVYAVTYGVDSDPISINYRTEIDGGGGSGGGGSGGGGSGGGGSEYEARIEALIRAAQEQQEKNEAALRELYKWAS
modifications: Anti-N17 Adnectin - HIV fusion peptide inhibitor Combinectin
B6: 426 (protein)
chain: B5 chain
modifications: Anti-N17 Adnectin - HIV fusion peptide inhibitor Combinectin
B7: 415 (protein)
chain: MGHHHHHHGVSDVPRDLEVVAATPTSLLISWDAPAVTVRYYRITYGETGGNSPVQEFTVPGSKSTATISGLKPGVDYTITVYAVTGRGESPASSKPISINYRTEIDGGGGSGGGGSGGGGSGGGGSRIEALIRAAQEQQEKNEAALRELFKWAS
modifications: Anti-N17 Adnectin - HIV fusion peptide inhibitor Combinectin
B8: 416 (protein)
chain: B7 chain with E140Q, F150D
modifications: Anti-N17 Adnectin - HIV fusion peptide inhibitor Combinectin
B9: 423 (protein)
chain: B7 chain with F150Y, A153T
modifications: Anti-N17 Adnectin - HIV fusion peptide inhibitor Combinectin
B10: 418 (protein)
chain: B7 chain with F150L
modifications: Anti-N17 Adnectin - HIV fusion peptide inhibitor Combinectin
B11: 419 (protein)
chain: B7 chain with F150Q
modifications: Anti-N17 Adnectin - HIV fusion peptide inhibitor Combinectin
B12: 417 (protein)
chain: B7 chain with F150Y
modifications: Anti-N17 Adnectin - HIV fusion peptide inhibitor Combinectin
B13: 422 (protein)
chain: MGHHHHHHGVSDVPRDLEVVAATPTSLLISWKYKVHPYRYYRITYGETGGNSPVQEFTVPSVLSTATISGLKPGVDYTITVYAVTYGVNSLPISINYRTEIDGGGGSGGGGSGGGGSGGGGTEYEARIEALIRAAQEQQEKNEAALRELDK
modifications: Anti-N17 Adnectin - HIV fusion peptide inhibitor Combinectin
B14: 424 (protein)
chain: MGHHHHHHGGSVSDVPRDLEVVAATPTSLLISWEYKVNAYRYYRITYGETGGNSPVQEFTVPSVLSTATISGLKPGVDYTITVYAVTYGVDSDPISINYRTEIDGGGGSGGGGSGGGGSGGGGARIEEYAARIEALIRAAQEQQEKNEAALRELYKWAS
modifications: Anti-N17 Adnectin - HIV fusion peptide inhibitor Combinectin
B15: 413 (protein)
chain: MGHHHHHHGVSDVPRDLEVVAATPTSLLISWKYKVHPYRYYRITYGETGGNSPVQEFTVPSVLSTATISGLKPGVDYTITVYAVTYGVNSLPISINYRTEIDGGGGSGGGGSGGGGSGGGGTEYEARIEALIRAAQEQQEKNEAALRELKEWASIWN
modifications: Anti-N17 Adnectin - HIV fusion peptide inhibitor Combinectin
B16: 427 (protein)
chain: B15 chain
modifications: Anti-N17 Adnectin - HIV fusion peptide inhibitor Combinectin

The test system of this assay is NL-Rluc virus. In words: Combinectin potency assay: antiviral EC50, NL-Rluc virus in MT-2 cells, luciferase readout. The assay is classed as cell-based, HIV-1. Conditions: Anti-N17 Adnectin - HIV fusion peptide inhibitor Combinectin, Table 4. The procedure, abridged: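 Peptides, serially diluted threefold over 11 points in triplicate, were exposed for 4–5 days to MT-2 cells preinfected 1 h with NL-Rluc virus (MOI 0.01). Replication read out as Renilla luciferase signal, with EC50 derived against untreated infected controls.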
What is called EC50 is the concentration at which the effect is half-maximal. B1: the EC50 was found to be 50 nM.

On to B2, for which the EC50 worked out at 523 nM.

In the case of B3, the EC50 turned out to be 4 nM.

B4: the EC50 is 8 nM.

On to B5, for which the EC50 was determined as 2980 nM.

Regarding B6, the EC50 is 139 nM.

As for B7, the EC50 was > 1000 nM.

Take B8: the EC50 was > 1000 nM.

Regarding B9, the EC50 came to 122 nM.

For B10, the EC50 came to 218 nM.

On to B11, for which the EC50 is > 1000 nM.

For B12, the EC50 came to 428 nM.

For B13, the EC50 turned out to be 3 nM.

For B14, the EC50 was 39 nM.

With B15, the EC50 is 6 nM.

Take B16: the EC50 is 143 nM.
